# Test results from patent US20160200782A1 (MOERAE MATRIX, published 2016).
# B1: MMI-0300 (peptide)
# peptide: FAKLAARLYRKALARQLGVAA
# B2: MMI-0400 (peptide)
# peptide: KAFAKLAARLYRKALARQLGVAA
# Experiments:
# Test in all cases: cell-based or functional assay
# ARK5(h) = biological target: T1, ARK5(h) (human, UniProt O60285 1-661, limits assumed)
# T1 sequence (looked up): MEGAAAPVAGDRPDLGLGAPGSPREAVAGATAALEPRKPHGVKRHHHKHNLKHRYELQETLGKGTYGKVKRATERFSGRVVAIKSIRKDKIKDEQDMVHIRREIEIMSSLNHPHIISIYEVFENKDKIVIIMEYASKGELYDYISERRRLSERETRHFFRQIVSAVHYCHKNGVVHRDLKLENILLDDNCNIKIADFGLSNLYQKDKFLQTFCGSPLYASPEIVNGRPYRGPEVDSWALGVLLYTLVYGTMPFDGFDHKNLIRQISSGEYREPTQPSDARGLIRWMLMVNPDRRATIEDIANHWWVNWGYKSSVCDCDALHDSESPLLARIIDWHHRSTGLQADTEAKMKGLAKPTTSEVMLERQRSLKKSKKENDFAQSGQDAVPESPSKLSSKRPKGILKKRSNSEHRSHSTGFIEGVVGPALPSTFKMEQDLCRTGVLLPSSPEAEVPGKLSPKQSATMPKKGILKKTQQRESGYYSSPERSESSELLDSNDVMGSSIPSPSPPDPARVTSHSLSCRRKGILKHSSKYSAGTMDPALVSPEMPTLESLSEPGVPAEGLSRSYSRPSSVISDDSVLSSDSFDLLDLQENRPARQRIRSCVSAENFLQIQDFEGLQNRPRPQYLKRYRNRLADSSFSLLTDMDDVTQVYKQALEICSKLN
# ALK4(h) = biological target: T2, ALK4(h) (human, UniProt P36896 150-505, limits assumed)
# T2 sequence (looked up): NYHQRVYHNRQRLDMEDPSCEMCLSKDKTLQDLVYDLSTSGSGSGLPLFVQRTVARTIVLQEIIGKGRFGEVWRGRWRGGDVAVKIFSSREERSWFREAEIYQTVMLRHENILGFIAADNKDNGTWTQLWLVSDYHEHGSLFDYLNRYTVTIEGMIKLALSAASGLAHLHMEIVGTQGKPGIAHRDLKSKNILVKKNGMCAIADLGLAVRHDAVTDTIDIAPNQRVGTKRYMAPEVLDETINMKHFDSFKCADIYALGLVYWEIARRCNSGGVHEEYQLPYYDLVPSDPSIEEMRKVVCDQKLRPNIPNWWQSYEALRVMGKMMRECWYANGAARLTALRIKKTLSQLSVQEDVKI
# Ret(h) = biological target: T3, Ret(h) (human, UniProt P07949 658-1114, limits assumed)
# T3 sequence (looked up): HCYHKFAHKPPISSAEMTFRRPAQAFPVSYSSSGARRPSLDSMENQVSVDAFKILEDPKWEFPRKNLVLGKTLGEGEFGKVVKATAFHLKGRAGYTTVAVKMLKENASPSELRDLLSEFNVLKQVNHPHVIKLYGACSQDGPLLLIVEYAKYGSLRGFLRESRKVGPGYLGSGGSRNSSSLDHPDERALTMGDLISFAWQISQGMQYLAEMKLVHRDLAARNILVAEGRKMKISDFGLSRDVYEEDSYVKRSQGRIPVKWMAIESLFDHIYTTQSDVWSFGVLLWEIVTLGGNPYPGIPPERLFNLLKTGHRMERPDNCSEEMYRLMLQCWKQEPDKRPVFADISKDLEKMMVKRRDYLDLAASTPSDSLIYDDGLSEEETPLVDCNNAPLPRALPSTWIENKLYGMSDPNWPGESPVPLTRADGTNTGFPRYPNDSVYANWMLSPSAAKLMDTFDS
# EphA4(h) = biological target: T4, EphA4(h) (human, UniProt P54764 570-986, limits assumed)
# T4 sequence (looked up): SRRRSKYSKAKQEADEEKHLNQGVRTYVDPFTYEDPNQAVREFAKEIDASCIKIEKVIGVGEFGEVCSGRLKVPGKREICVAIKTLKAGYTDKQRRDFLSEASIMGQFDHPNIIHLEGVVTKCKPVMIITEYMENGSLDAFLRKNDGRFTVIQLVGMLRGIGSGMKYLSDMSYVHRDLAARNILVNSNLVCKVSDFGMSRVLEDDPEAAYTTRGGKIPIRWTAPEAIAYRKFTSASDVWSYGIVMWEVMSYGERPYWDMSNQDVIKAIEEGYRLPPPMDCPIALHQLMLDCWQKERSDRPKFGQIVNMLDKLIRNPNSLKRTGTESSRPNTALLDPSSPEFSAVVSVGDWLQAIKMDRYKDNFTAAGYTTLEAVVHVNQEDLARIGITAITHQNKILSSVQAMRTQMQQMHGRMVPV
# CDK5/p25(h) = CDK5/p25(h) (human, UniProt Q00535 1-292; Q15078 99-307)
# TAO3(h) = biological target: T5, TAO3(h) (human, UniProt Q9H2K8 1-315, limits assumed)
# T5 sequence (looked up): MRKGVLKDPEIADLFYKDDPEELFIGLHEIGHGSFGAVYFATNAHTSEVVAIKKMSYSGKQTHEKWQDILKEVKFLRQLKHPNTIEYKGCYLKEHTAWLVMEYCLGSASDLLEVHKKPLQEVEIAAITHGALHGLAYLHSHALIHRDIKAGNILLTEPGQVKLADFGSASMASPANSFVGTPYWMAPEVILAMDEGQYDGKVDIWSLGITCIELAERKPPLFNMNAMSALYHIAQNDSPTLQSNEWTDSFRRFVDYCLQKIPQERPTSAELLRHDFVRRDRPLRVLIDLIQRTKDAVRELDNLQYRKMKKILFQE
# Flt3(h) = biological target: T6, Flt3(h) (human, UniProt P36888 564-993, limits assumed)
# T6 sequence (looked up): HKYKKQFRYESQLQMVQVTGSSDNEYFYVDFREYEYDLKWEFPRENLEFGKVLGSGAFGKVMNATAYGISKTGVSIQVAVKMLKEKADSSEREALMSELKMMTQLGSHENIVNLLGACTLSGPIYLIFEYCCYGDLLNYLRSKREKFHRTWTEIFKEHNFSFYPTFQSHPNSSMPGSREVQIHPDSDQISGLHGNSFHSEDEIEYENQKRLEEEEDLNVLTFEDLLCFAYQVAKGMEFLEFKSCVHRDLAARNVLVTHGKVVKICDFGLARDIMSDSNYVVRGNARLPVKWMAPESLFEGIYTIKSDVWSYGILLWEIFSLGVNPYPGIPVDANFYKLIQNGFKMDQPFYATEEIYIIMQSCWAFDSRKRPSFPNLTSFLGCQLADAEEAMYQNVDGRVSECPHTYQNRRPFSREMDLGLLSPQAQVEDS
# Note: test concentration or dose not given here.
Binder,% activity (ARK5(h)),% activity (ALK4(h)),% activity (Ret(h)),% activity (EphA4(h)),% activity (CDK5/p25(h)),% activity (TAO3(h)),% activity (Flt3(h))
B1,78%,140%,140%,88%,89%,77%,84%
B2,69%,130%,145%,65%,92%,67%,18%
